# Publication PMC6995573, “Critical Factors in Human Antizymes that Determine the Differential Binding, Inhibition, and Degradation of Human Ornithine Decarboxylase” (Biomolecules, 2019)
# Read-outs that look alike come from different tables or passages of the source.
# T1: Human ornithine decarboxylase (human, UniProt P11926 2-421)
# T1 sequence: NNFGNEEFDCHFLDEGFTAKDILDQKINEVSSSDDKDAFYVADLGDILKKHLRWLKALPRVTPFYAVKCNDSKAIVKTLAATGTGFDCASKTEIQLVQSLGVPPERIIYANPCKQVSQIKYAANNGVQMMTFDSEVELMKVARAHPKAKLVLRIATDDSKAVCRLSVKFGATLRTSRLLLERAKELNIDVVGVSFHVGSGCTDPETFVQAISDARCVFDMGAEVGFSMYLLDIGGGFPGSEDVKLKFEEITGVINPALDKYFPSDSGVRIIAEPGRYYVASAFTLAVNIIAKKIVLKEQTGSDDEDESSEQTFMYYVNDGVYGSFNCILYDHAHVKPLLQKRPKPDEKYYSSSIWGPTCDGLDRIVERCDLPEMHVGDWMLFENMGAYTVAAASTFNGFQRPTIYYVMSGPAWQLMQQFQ
# B1: AZ1_D124S/E150Q/Q166K/N179D (natural protein)
# chain: not shown
# notes: antizyme 1 (AZ1), human; also called AZ1_4M
# B2: AZ1_D124S/E150Q/Q166K/H171S/N179D (natural protein)
# chain: not shown
# notes: antizyme 1 (AZ1), human; also called AZ1_5M; AZ1_D124S/E150Q/Q166K/N179D/H171S
# B3: AZ1_WT (natural protein)
# chain: not shown
# notes: antizyme 1 (AZ1), human; also called antizyme 1
# B4: AZ_(95–228) (domain or fragment)
# chain: not shown
# notes: also called C-terminal domain of AZ1
# B5: AZ_(95–228)_E164A (domain or fragment)
# chain: not shown
# B6: AZ_(95–228)_K178A (domain or fragment)
# chain: not shown
# B7: AZ_(95–228)_K153A/E164A/E165A (domain or fragment)
# chain: not shown
# B8: AZ_(95–228)_E142A/K153A/D154A/E161A/E164A/E165A/H171A/K178A (domain or fragment)
# chain: not shown
# notes: also called hybrid octuple mutant
# B9: AZ_(95–228)_E165A (domain or fragment)
# chain: not shown
# B10: AZ_(95–228)_K153A (domain or fragment)
# chain: not shown
# B11: AZ_(95–228)_E161A (domain or fragment)
# chain: not shown
# B12: AZ_(95–228)_K153A/D154A/E161A/E164A/E165A (domain or fragment)
# chain: not shown
# B13: AZ_(95–228)_D154A (domain or fragment)
# chain: not shown
# B14: AZ_(95–228)_H171A (domain or fragment)
# chain: not shown
# B15: AZ_(95–228)_E142A/H171A/K178A (domain or fragment)
# chain: not shown
# notes: also called non-α1 mutant
# B16: AZ_(95–228)_E142A (domain or fragment)
# chain: not shown
# B17: AZ3_WT (natural protein, human, UniProt Q9UMX2 1-235, looked up)
# chain: MPCKRCRPSVYSLSYIKRGKTRNYLYPIWSPYAYYLYCYKYRITLREKMLPRCYKSITYKEEEDLTLQPRSCLQCSESLVGLQEGKSTEQGNHDQLKELYSAGNLTVLATDPLLHQDPVQLDFHFRLTSQTSAHWHGLLCDRRLFLDIPYQALDQGNRESLTATLEYVEEKTNVDSVFVNFQNDRNDRGALLRAFSYMGFEVVRPDHPALPPLDNVIFMVYPLERDVGHLPSEPP
# notes: antizyme 3 (AZ3), human; also called antizyme 3
# Experiments:
# [1] = target: T1, Human ornithine decarboxylase; assay: cell-based or functional assay
# [2] = target: T1, Human ornithine decarboxylase; assay: AUC; sedimentation velocity, 20 °C, 30 mM Tris-HCl pH 7.4, 25 mM NaCl; ODC fixed at 0.3 mg/mL, AZ 0.02-0.19 mg/mL (AZ/ODC molar ratio 0.25 to 3); all data sets fitted to the AB hetero-association model in SEDPHAT; settings: both partners purified
# [3] = target: T1, Human ornithine decarboxylase; assay: cell-based or functional assay; remark: listed apart in the source
# [4] = target: T1, Human ornithine decarboxylase; assay: AUC; sedimentation velocity, 20 °C, 30 mM Tris-HCl pH 7.4, 25 mM NaCl; ODC fixed at 0.3 mg/mL, AZ 0.02-0.19 mg/mL (AZ/ODC molar ratio 0.25 to 3); all data sets fitted to the AB hetero-association model in SEDPHAT; settings: both partners purified; remark: listed apart in the source
# [5] = target: T1, Human ornithine decarboxylase; assay: cell-based or functional assay; remark: listed apart in the source
Binder,IC50 of inhibition of ODC enzyme activity by AZ [1] [µM],Kd [2] [µM],IC50 of inhibition of ODC enzyme activity by AZ [3] [µM],Kd [4] [µM],IC50 of inhibition of ODC enzyme activity by AZ [5] [µM]
B1,0.55,0.95 ± 0.03,–,–,–
B2,0.49,1.78 ± 0.02,–,–,–
B3,0.23,0.22 ± 0.01,–,–,–
B4,–,–,0.16,1.15 ± 0.01,–
B5,–,–,0.3,1.68 ± 0.01,–
B6,–,–,0.31,3.03 ± 0.02,–
B7,–,–,4.13,6.58 ± 0.02,–
B8,–,–,–,12.4 ± 0.7,–
B9,–,–,0.3,1.73 ± 0.02,–
B10,–,–,0.4,1.21 ± 0.01,–
B11,–,–,0.25,1.11 ± 0.01,–
B12,–,–,–,6.81 ± 0.06,–
B13,–,–,0.27,1.7 ± 0.02,–
B14,–,–,0.27,2.03 ± 0.02,–
B15,–,–,–,11.5 ± 0.6,–
B16,–,–,0.31,2.2 ± 0.02,–
B17,–,1.52 ± 0.01,–,–,0.61
